The record followed here is the nanobody polyreactivity screen of Harvey et al. (2022).

The data set in a line: yeast display, Sf9 membrane polyspecificity reagent, FACS + sequencing; frameworks hold sequencing errors. The gist of the method:
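Sorting gates, low and high (top ~1%), were placed on anti-HA fluorescence to track expression and on streptavidin fluorescence to track reagent binding. A clone's polyreactivity label is taken from the gate it came out of. The reagent was 10% biotinylated, detergent-solubilized Sf9 membrane, applied for 1 hour at 4 °C to galactose-induced yeast display cells.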
In the case of “QVQLVESGGGLVQAGGSLRLSCAASGSTFRYNVMGWYRQAPGKERELVATISYSGGSTNYADSVKGRFTISRDNAKNSVYLEIKSLKPVDTAVYYCAARYLYPFYGYWWYDYWGQGTQVTVSS”, the “polyreactivity (PSR sort gate)” value is given as “high polyreactivity”.
Turning to “QVQLVESGGGLVQAGGSLRLSCAASGSTFRYYAMGWYRPAPGKERELVAVISTSGNTYYADSVKGRFTISRDNAKNTVYLQMNSLKPEDTAVYYCAARGVGGQISQEYDYWGQGTQVTVSS”, the “polyreactivity (PSR sort gate)” value is recorded as “low polyreactivity”.
Turning to “QVQLVESGGGLVQAGGSLRLSCAASGSTFRYYAMGWYRQAPGKEREFVAAITASGVTTYYADSVKGRFTISRDNAKNTVYLQMNSLKPEDTAVYYCAARLYYNYRGRYNYWGQGTQVTVSS”, the “polyreactivity (PSR sort gate)” value is given as “high polyreactivity”.
To “QVQLVESGGGLVQAGGSLRLSCAASGSTFRYYAMGWYRQAPGKERELVAAISRSGGSTSYADSVKGRFTISRDNAKNTVYLQMNSLKPEDTAVYSCAARIYRKYYRYDYWGQGTQVTVSS” belongs “high polyreactivity”; to “QVQLVESGGGLVQAGGSLRLSCAASGSTFRYYAMGWYRQAPGKERELVAAISTSGGRTYYADSVKGRFTISRDNAKNTVYLQMNSLKPEDTAVYYCNARESRGYSDQTWKYYYWGQGTQVTVSS”, “high polyreactivity”; to “QVQLVESGGGLVQAGGSLRLSCAASGSTFRYYAMGWYRQAPGKERELVAAISWSGGSTYYADSVKGRFTISRDNAKNTVYLQMNSLKPEDTEVYYCNKAWFPYYYYRFDYWGQGTQVTVSS”, “high polyreactivity”.
For the sequence “QVQLVESGGGLVQAGGSLRLSCAASGSTFRYYAMGWYRQAPGKERELVASITWSGGSTYYADSVKGRFTISRDNAKNTVYLQMNSLNPEDTAVYYCAARQYIGSPPHRRRFDYWGKGTQVTVSS”, the “polyreactivity (PSR sort gate)” value is on record as “high polyreactivity”.
With “QVQLVESGGGLVQAGGSLRLSCAASGSTFRYYAMGWYRQAPGKERELVAVISASGGTTYYADSVKGRFTISRDNAKNTVYLQMNSLKPEDTAVYYCAAREGWGFYYWGQGTQVTVSS” the entry was “high polyreactivity”; with “QVQLVESGGGLVQAGGSLRLSCAASGSTFRYYSMGWYRQAPGKERELVAVISKSGARTYYADSVKGRFTISRDNAKNTVYLQMNSLQPEETSVYYCNAVFKLDSHYAMCYWGQGTQVTVSS”, “high polyreactivity”.
Turning to “QVQLVESGGGLVQAGGSLRLSCAASGSTFRYYVMGWYRPAPGKERELVAAITRGGSTNYADSVKGRFTISRDNAKNTVYLQMNSLKPEDTAVYYCAARGGWKRPFGYQLQYDYWGQGTQVTVSS”, the “polyreactivity (PSR sort gate)” value is “high polyreactivity”.
For “QVQLVESGGGLVQAGGSLRLSCAASGSTFRYYVMGWYRQAPGKERELVAAISSSGGSTYYADSVKGRFTISRDIAKNTVYLQMNSLKPEDTAVYYCARDKGYVSYRYNYWGQGTQVTVSS”, the “polyreactivity (PSR sort gate)” value is “high polyreactivity”.
Turning to “QVQLVESGGGLVQAGGSLRLSCAASGSTFRYYVMGWYSQSPGKERELVAGISYRGGTTYYADSVKGRFTISRDNAKNTVYLQMYILKPEDTAVYYCNAETAAAQASYDRLYVLLDYWGQGTQVTVSS”, the “polyreactivity (PSR sort gate)” value is recorded as “low polyreactivity”.
With “QVQLVESGGGLVQAGGSLRLSCAASGSTFSANPMGWYRQAPGKERELVASISRRGGSTYYADSVKGRFTISRDNAKNTVYLQMNNLKPEDTAVYYCAAYYEYRRDYWGQGTQVTVSS” the entry was “high polyreactivity”.
Consider “QVQLVESGGGLVQAGGSLRLSCAASGSTFSAYAMGGYRQAPGKERELVAVITSGASTYYADSVKGRFTISRDNAKNTVYLQMNSLKPEDTAVYYCAAYGYSYRGWRMDYWGQGTQVTVSS”, for which the “polyreactivity (PSR sort gate)” value is “high polyreactivity”.
For the sequence “QVQLVESGGGLVQAGGSLRLSCAASGSTFSDNAMGWYRQAPGKERELVAANTSGGSTYYADSVKGRFTISRDNAKNTVYLQMNSLKPEDTAVYYCAADYWGQGTQVTVSS”, the “polyreactivity (PSR sort gate)” value was “low polyreactivity”.
With “QVQLVESGGGLVQAGGSLRLSCAASGSTFSDYPMGWYRQAPGKERELVAAISDSGSGTYYADSVKGRFTISRDNAKNTVYLQMNSLKPEDTAVYYCNTDPRFAMDWGQGTQVTVSS”, the “polyreactivity (PSR sort gate)” value is recorded as “low polyreactivity”.
Take “QVQLVESGGGLVQAGGSLRLSCAASGSTFSDYTMGWYRQAPGKERELVAAITTIGGSTYYADSVKGRFTISRDNAKNTVYLQMNSLKPEDTAVYYCAASYYYPFEYYYWGQGTQVTVSS”: the “polyreactivity (PSR sort gate)” value was “low polyreactivity”.
With “QVQLVESGGGLVQAGGSLRLSCAASGSTFSENAMGWSRQAPGKERELVAAISWGGGSTYYADSVKGRFTISRDNAKNTVYLQMNSLKPEDTAVYYCNADVFDDYGYFESDYWGQGTQVTVSS”, the “polyreactivity (PSR sort gate)” value is on record as “low polyreactivity”.
For the sequence “QVQLVESGGGLVQAGGSLRLSCAASGSTFSEYGMGWYRQAPGKERELVARITSGGSPYYADSVKGRFTISRDNAKYTVYLQMNSLKPEDTAVYYCATVKTRDYWGQGTQVTVSS”, the “polyreactivity (PSR sort gate)” value is given as “low polyreactivity”.
“QVQLVESGGGLVQAGGSLRLSCAASGSTFSFYAMGWYRQAPGKERELVAAISWSDGSTYYADSVKGRFTISRDNAKNTVYLQMNSLKPEDTAVYYCAARRLAYIFYTVGYDYWGQGTQVTVSS”: the “polyreactivity (PSR sort gate)” value is “low polyreactivity”.
Regarding “QVQLVESGGGLVQAGGSLRLSCAASGSTFSFYDMGWSRQAPGKEPELVAAITGSGGTTYYADSVKVRFTISRDNAKNTVYFQMNILKPEDTAFYYCAADSLESYPDYEYDFWGQGTQVTVSS”, the “polyreactivity (PSR sort gate)” value is given as “low polyreactivity”.
For “QVQLVESGGGLVQAGGSLRLSCAASGSTFSGNAMGWDRQAPGKESELVAAINSVRTYYADSVKGRFTISRDNAKNTVYLQMNSLKQEDTAVYYCNAEGYVSLSQYGVRRHSDYWGQGTQVNVSS”, the “polyreactivity (PSR sort gate)” value was “high polyreactivity”.
“QVQLVESGGGLVQAGGSLRLSCAASGSTFSGNAMGWYRQAPGKERELVAAITSSGGSTYYADSVKGRFTISRDTAKNTVYLQMNSLKPEDTAVYYCAAKSRRTRRSYYWGQGTQVTVSS”: the “polyreactivity (PSR sort gate)” value is recorded as “high polyreactivity”.
Take “QVQLVESGGGLVQAGGSLRLSCAASGSTFSGYAMGWYRQAPGKERELVAAISTSGGRTYYADSVKGRFTISRDNAKNTVYLQMNSLKPEDTAVYYCAAQYRGLYKGLGSWGQGTQVTVSS”: the “polyreactivity (PSR sort gate)” value was “high polyreactivity”.
“QVQLVESGGGLVQAGGSLRLSCAASGSTFSGYAMGWYRQAPGKERELVAAITSGGSTNYADSVKGRFTISRDNAKNTVYLQMNSLKPEDTAVYYCAADSREVSTTAYYYWGQGTQVTVSS”: the “polyreactivity (PSR sort gate)” value is on record as “low polyreactivity”.
In the case of “QVQLVESGGGLVQAGGSLRLSCAASGSTFSGYAMGWYRQAPGKERELVAGIRLDGSRTYYADSVKGRFTISRDNAKNTVYLQMNSLKPEDTAVYYCAAPSGTYWTRREYWGQGSQVTVSS”, the “polyreactivity (PSR sort gate)” value is given as “low polyreactivity”.
On to “QVQLVESGGGLVQAGGSLRLSCAASGSTFSGYVMGWYRQAPGKERELVAAISWGGSRTYYADSVKGRFTISRDNAKNTVYLQMNSLKPEDTAVYYCNAYTSYGTFFYWAWPYYYWGQGTQVTVSS”, for which the “polyreactivity (PSR sort gate)” value is listed as “high polyreactivity”.
With “QVQLVESGGGLVQAGGSLRLSCAASGSTFSINAMGWYRQAPGKERELVAAISSGGSTYYADSVKGRFTISRDNAKNTVYLQMNSLKPEDTAVYYCAVDPPWTYWSTYRYDYWGQGTQVTVSS”, the “polyreactivity (PSR sort gate)” value is recorded as “low polyreactivity”.
In the case of “QVQLVESGGGLVQAGGSLRLSCAASGSTFSIYGMGWYRQAPGKERELVAVITARDGSTYYADSVKGRFTISRDNAKNTVYLQMNSLKPEDTAVYYCAADIGPRYDSWGQGTQVTVSS”, the “polyreactivity (PSR sort gate)” value is on record as “high polyreactivity”.
To “QVQLVESGGGLVQAGGSLRLSCAASGSTFSKNAMGWYRQAPGKERELVAAIRSRGGSTYYADSVKGRFTISRDNAKNTVYLQMNSLKPEDTAVYYCNKVRAYEGDYWGQGTQVTVTS” belongs “high polyreactivity”; to “QVQLVESGGGLVQAGGSLRLSCAASGSTFSNNSIGWYRQAPWKETELVAAISWYGDSTYADSVKGRFTISRDNAKNTVYLQMNSLKAEATAVYYCAKDTIITPGRRKSPRDRHGYWGQGTQVTVSS”, “low polyreactivity”; to “QVQLVESGGGLVQAGGSLRLSCAASGSTFSNYALGWYSQAPGKERELVAAITSRGGRTYYADSVKGRFTISRDNAKNTVYLQMNSLKPEDTAVYYCAARVGSGRAIDLYYYWGQGTQVTVSS”, “low polyreactivity”.
On to “QVQLVESGGGLVQAGGSLRLSCAASGSTFSNYAMGWYRQAPGKERELVAAISVRGGSTYYADSVKGRFTISRDNAKNTVYLQMNSLKPEDTAVYYCAKYYYYLRSARKYDYWGQGTQVTVSS”, for which the “polyreactivity (PSR sort gate)” value is reported as “high polyreactivity”.
As to “QVQLVESGGGLVQAGGSLRLSCAASGSTFSNYAMGWYRQAPGKERELVASISNGGSTNYADSVKGRFTISRDNAMNTVYLQMNSLKPEDTSVYNCNAESKAKYDYWGQGTQVTVSS”, the “polyreactivity (PSR sort gate)” value is listed as “low polyreactivity”.
Turning to “QVQLVESGGGLVQAGGSLRLSCAASGSTFSPNAMGWYRQAPGKERELVAAITGGGSTYADSVKGRFTISRDNAKNTVYLQMNSLKPEDTAVYYFNADSYSFPYYYWGQGTQVTVSS”, the “polyreactivity (PSR sort gate)” value is listed as “low polyreactivity”.
As for “QVQLVESGGGLVQAGGSLRLSCAASGSTFSPNAMGWYRQAPGKERELVAAITYRGANTYYADSVKGRFTISRDNEKNTVYLQMNSLKPEDNAVYYCAAEYAYHHVGFGYWGQGTQVTVSS”, the “polyreactivity (PSR sort gate)” value is recorded as “low polyreactivity”.
With “QVQLVESGGGLVQAGGSLRLSCAASGSTFSPNAMGWYRQAPGKERELVADIDWSGGGTYYADSVKGRFTISRDNAKNTVYLQMNSLKPEDTAVYYCAAGYVWWPFEYDYWGQGTQVTVSS”, the “polyreactivity (PSR sort gate)” value is recorded as “high polyreactivity”.
“QVQLVESGGGLVQAGGSLRLSCAASGSTFSPYAMGWYRQAPGKERELVAAITSSGGSTYYADSVKGRFTISRDNAKNTVYLQMNSLKPEDTAVYYCAAEGYYTSTYDLYDYYWGQGTQVTVSS”: the “polyreactivity (PSR sort gate)” value is recorded as “low polyreactivity”.
Regarding “QVQLVESGGGLVQAGGSLRLSCAASGSTFSPYAMGWYRQAPGKERELVANITISGGSTYYADSVKGRFTISRDNAKNTVYLQMNSLKPEDTAVYYCNADSLIRWLFTVVIFDYWGQGTQVTVSS”, the “polyreactivity (PSR sort gate)” value is reported as “low polyreactivity”.
Regarding “QVQLVESGGGLVQAGGSLRLSCAASGSTFSPYARGWYRQAPGKERELVANITISGGSTYYADSVKGRFTISRENAKNTVYFQMNSLKPEDTGVYYSNADSLIRWLFTVVIFDYWGQGTQVTVSS”, the “polyreactivity (PSR sort gate)” value is “low polyreactivity”.
To “QVQLVESGGGLVQAGGSLRLSCAASGSTFSRNAKGWYRQAPGKERELVAAITRSGGSTYYADSVKGRFTISRDNAKNTVYLQMNSLKPEDTAVYYCAVAVPRGVYLYDYWGQGTQVTVSS” belongs “low polyreactivity”.
